The source of these data is patent publication US20040037843A1.

In general, IC50 refers to the concentration needed to halve the response being measured.

The first assay deals with HLA-A*2401 (human). The assay can be described thus: competition with 125I-labelled probe peptide for purified HLA, gel filtration.
Details: not given
(In general: SEC sorts molecules by how far they enter the pores of the column.)
For the substance “PSA position 98, 9 amino acids (peptide)”, the relative binding ratio (IC50 of standard peptide / IC50 of test peptide) came to 0.0001.

Turning to “PSA position 190, 9 amino acids (peptide)”, the relative binding ratio (IC50 of standard peptide / IC50 of test peptide) was determined as 0.031.

With “PSM position 31, 9 amino acids (printed as 8 in Table XVIII) (peptide)”, the relative binding ratio (IC50 of standard peptide / IC50 of test peptide) worked out at 0.019.

Take “PSM position 32, 10 amino acids (peptide)”: the relative binding ratio (IC50 of standard peptide / IC50 of test peptide) was found to be 0.0026.

As for “PSM position 409, 10 amino acids (peptide)”, the relative binding ratio (IC50 of standard peptide / IC50 of test peptide) turned out to be 0.054.

On to “PSM position 448, 9 amino acids (peptide)”, for which the relative binding ratio (IC50 of standard peptide / IC50 of test peptide) was determined as 0.019.

Turning to “PSM position 565, 10 amino acids (peptide)”, the relative binding ratio (IC50 of standard peptide / IC50 of test peptide) is 1.1.

With “PSM position 582, 10 amino acids (peptide)”, the relative binding ratio (IC50 of standard peptide / IC50 of test peptide) was found to be 0.0002.

On to “PSM position 606, 9 amino acids (peptide)”, for which the relative binding ratio (IC50 of standard peptide / IC50 of test peptide) stood at 12.

For the substance “PSM position 621, 9 amino acids (peptide)”, the relative binding ratio (IC50 of standard peptide / IC50 of test peptide) came out at 0.001.

A further assay has as its target HLA-A*2401 (purified HLA class I molecule) (human).
Assay: not given
Details: not given
For “PSM (prostate specific membrane antigen) peptide, position 31, 9 amino acids”, the relative binding ratio (IC50 of standard peptide / IC50 of test peptide) worked out at 0.019.

“PSM (prostate specific membrane antigen) peptide, position 32, 10 amino acids”: the relative binding ratio (IC50 of standard peptide / IC50 of test peptide) was 0.0026.

In the case of “PSM (prostate specific membrane antigen) peptide, position 565, 10 amino acids”, the relative binding ratio (IC50 of standard peptide / IC50 of test peptide) came out at 1.1.

On to “PSM (prostate specific membrane antigen) peptide, position 582, 10 amino acids”, for which the relative binding ratio (IC50 of standard peptide / IC50 of test peptide) turned out to be 0.0002.

As to “PSM (prostate specific membrane antigen) peptide, position 621, 9 amino acids (from UniProt Q04609 621-629)”, the relative binding ratio (IC50 of standard peptide / IC50 of test peptide) was 0.001.

In the next assay the target is HLA-A*2401 (human).
Assay: not given
Details: not given
Regarding “PSA position 190, 9 amino acids (…) (peptide)”, the relative binding ratio (IC50 of standard peptide / IC50 of test peptide) stood at 0.031.

Consider “PSM position 409, 10 amino acids (…) (peptide)”, for which the relative binding ratio (IC50 of standard peptide / IC50 of test peptide) worked out at 0.054.

A further assay addresses HLA-A*2401 (purified HLA class I molecule) (human). The assay can be described thus: competition with 125I-labelled probe peptide on purified HLA, gel filtration.
Details: not given
For the substance “PAP peptide, position 163, 10 amino acids”, the relative binding ratio (IC50 of standard peptide / IC50 of test peptide) was 0.0001.

As to “PAP peptide, position 183, 9 amino acids”, the relative binding ratio (IC50 of standard peptide / IC50 of test peptide) stood at 0.11.

As to “PAP peptide, position 297, 10 amino acids”, the relative binding ratio (IC50 of standard peptide / IC50 of test peptide) amounted to 0.0001.

With “PAP peptide, position 309, 10 amino acids”, the relative binding ratio (IC50 of standard peptide / IC50 of test peptide) was determined as 0.024.

“PAP peptide, position 355, 10 amino acids”: the relative binding ratio (IC50 of standard peptide / IC50 of test peptide) was 0.0037.

As for “PSA peptide, position 54, 10 amino acids”, the relative binding ratio (IC50 of standard peptide / IC50 of test peptide) turned out to be 0.0007.

Regarding “PSM peptide, position 178, 9 amino acids”, the relative binding ratio (IC50 of standard peptide / IC50 of test peptide) was determined as 0.77.

As to “PSM peptide, position 638, 9 amino acids”, the relative binding ratio (IC50 of standard peptide / IC50 of test peptide) stood at 0.0001.

A further assay addresses HLA-A*2401 (human). In words: competition with 125I-labelled probe peptide for purified HLA, gel filtration.
Details: not given
This is another data set of the same source.
On to “PAP position 70, 10 amino acids (peptide)”, for which the relative binding ratio (IC50 of standard peptide / IC50 of test peptide) is 0.0022.

“PSA position 96, 11 amino acids (peptide)”: the relative binding ratio (IC50 of standard peptide / IC50 of test peptide) was 0.12.

On to “PSM position 74, 10 amino acids (peptide)”, for which the relative binding ratio (IC50 of standard peptide / IC50 of test peptide) was determined as 0.23.

Regarding “PSM position 227, 9 amino acids (peptide)”, the relative binding ratio (IC50 of standard peptide / IC50 of test peptide) is 0.44.

In the case of “PSM position 606, 9 amino acids (peptide)”, the relative binding ratio (IC50 of standard peptide / IC50 of test peptide) came to 12.

As to “PSM position 668, 9 amino acids (peptide)”, the relative binding ratio (IC50 of standard peptide / IC50 of test peptide) was found to be 0.0075.

The target in a further assay is HLA-A*0101 (purified HLA class I molecule) (human).
Assay: not given
Details: not given
Take “PSM peptide, position 196, 10 amino acids (A1 supermotif)”: the relative binding ratio (IC50 of standard peptide / IC50 of test peptide) was 0.016.

The target in a further assay is HLA-A*6802 (human). In words: competition with 125I-labelled standard peptide for purified HLA.
Details: not given
With peptide 1126.01, PSM.663, the IC50 was 976 nM.

Substance peptide 1129.10, PSM.288 displayed a half-maximal inhibitory concentration (IC50) of 1540 nM.

In the next assay the target is HLA-A*0206 (human). The description is as above.
Details: not given
Consider peptide 1419.24, PSA.166.V10, for which the IC50 came to 502 nM.

A further assay deals with HLA-A*2401 (purified HLA class I molecule) (human). In words: competition with 125I-labelled standard peptide for purified HLA, gel filtration.
Details: not given
For “PAP position 297, 10 amino acids (peptide)”, the relative binding ratio (IC50 of standard peptide / IC50 of test peptide) was found to be 0.0001.

Regarding PSA position 2, 9 amino acids (peptide), the relative binding ratio (IC50 of standard peptide / IC50 of test peptide) turned out to be 2.1.

Regarding “PSA position 2, 10 amino acids (peptide)”, the relative binding ratio (IC50 of standard peptide / IC50 of test peptide) worked out at 0.0062.

In the case of PSA position 9, 9 amino acids (peptide), the relative binding ratio (IC50 of standard peptide / IC50 of test peptide) is 0.11.

Regarding “PSA position 9, 10 amino acids (peptide)”, the relative binding ratio (IC50 of standard peptide / IC50 of test peptide) amounted to 0.36.

As to “PSA position 54, 10 amino acids (peptide)”, the relative binding ratio (IC50 of standard peptide / IC50 of test peptide) is 0.0007.

Regarding “PSA position 96, 11 amino acids (peptide)”, the relative binding ratio (IC50 of standard peptide / IC50 of test peptide) was 0.12.

For the substance “PSA position 224, 9 amino acids (peptide)”, the relative binding ratio (IC50 of standard peptide / IC50 of test peptide) stood at 0.0001.

On to “PSM position 74, 10 amino acids (peptide)”, for which the relative binding ratio (IC50 of standard peptide / IC50 of test peptide) stood at 0.23.

On to “PSM position 178, 9 amino acids (peptide)”, for which the relative binding ratio (IC50 of standard peptide / IC50 of test peptide) stood at 0.77.

For “PSM position 227, 9 amino acids (peptide)”, the relative binding ratio (IC50 of standard peptide / IC50 of test peptide) turned out to be 0.44.

Take “PSM position 624, 10 amino acids (peptide)”: the relative binding ratio (IC50 of standard peptide / IC50 of test peptide) is 3.2.

As to “PSM position 638, 9 amino acids (peptide)”, the relative binding ratio (IC50 of standard peptide / IC50 of test peptide) is 0.0001.

As for “PSM position 668, 9 amino acids (peptide)”, the relative binding ratio (IC50 of standard peptide / IC50 of test peptide) is 0.0075.

A further assay concerns the target HLA-A*6802 (human). The description is as above.
Details: not given
Turning to “PSM position 168, 10 amino acids (peptide)”, the relative binding ratio was found to be 0.0013.

The target of a further assay is HLA-A*0101 (human).
Assay: not given
Details: not given
“PSM peptide, position 196, 10 amino acids”: the relative binding ratio (IC50 of standard peptide / IC50 of test peptide) came out at 0.016.

Another assay concerns the target HLA-A*2401 (human).
Assay: not given
The settings on record: scale: ratio.
As for “PSA (Prostate Specific Antigen) peptide, position 2, 9 amino acids”, the relative binding ratio (A*2401) was found to be 2.1.

On to “PSA (Prostate Specific Antigen) peptide, position 2, 10 amino acids”, for which the relative binding ratio (A*2401) is 0.0062.

With “PSA (Prostate Specific Antigen) peptide, position 9, 9 amino acids”, the relative binding ratio (A*2401) stood at 0.11.

Turning to “PSA (Prostate Specific Antigen) peptide, position 9, 10 amino acids”, the relative binding ratio (A*2401) worked out at 0.36.

Turning to “PSM (Prostate Specific Membrane Antigen) peptide, position 624, 10 amino acids”, the relative binding ratio (A*2401) worked out at 3.2.

The next assay addresses HLA-A*2401 (human).
Assay: not given
Details: not given
This is another data set of the same source.
“PSA peptide, position 91, 9 amino acids (A24 supermotif)”: the relative binding ratio (IC50 of standard peptide / IC50 of test peptide) was determined as 0.0007.

With “PSA peptide, position 224, 9 amino acids (A24 supermotif)”, the relative binding ratio (IC50 of standard peptide / IC50 of test peptide) is 0.0001.
